The record followed here is patent publication US20050069542A1 (Human Genome Sciences, published 2005).

To fix the notation:
T1: flag-tagged soluble TL3 (amino acids 105-251 of SEQ ID NO:234) (Homo sapiens (Human), UniProt O75888 105-250)
T1 construct: Heterologous flag-tagged control protein, immobilized in the ELISA; also called flagged tagged TL-3; not shown: Flag tag
T1 sequence: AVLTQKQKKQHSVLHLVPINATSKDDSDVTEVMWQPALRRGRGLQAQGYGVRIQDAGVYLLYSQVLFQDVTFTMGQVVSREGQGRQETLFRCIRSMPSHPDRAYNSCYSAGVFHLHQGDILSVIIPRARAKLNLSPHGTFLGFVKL

B1: GMBC628 (scFv)
scFv: QVQLQQSGAEVKKPGASVRVSCKASGYTFTSYGFSWVRQAPGQRLEWMGWISAYKGNANYAEKFQGRVTMTTDTSTNTAYMELRSLRSDDTAVYYCARTRISVAGLDYYYYGLDVWGRGTLVTVSSGGGGSGGGGSGGGGSSELTQDPAVSVALGQTVRITCQGDSLRSYYTNWFQQKPGQAPLLVVYAKNNRPSGIPDRFSGSSSGNTASLTITGAQAEDEADYYCNSRDSSGNHVVFGGGTKLTVLG
B2: GMBC604 (scFv)
scFv: EVQLVQSGAEVKKPGESLRISCKGSGYTFTNYWINWVRQVPGKGLEWMGMIDPTDSYAKYSPSFQGHVTISTDKSVSTAYLQWRSLQASDSAIYYCVRGYSYDLDYWGKGTLVTVSSGGGGSGGGGSGGGGSQSVLTQPASVSGSPGQSITISCTGTSSDVGGYNYVSWYQQHPGKAPKLMIYEGSKRPSGVSNRFSGSKSGNTASLTISGLQAEDEADYYCSSYTTRSTRVFGGGTKLTVLG
B3: GMBC618 (scFv)
scFv: EVQLVQSGGGLVKPGGSLRLSCAASGFKFDDAWMNWVRQAPGKGLEWVGRIKSKRSGGTIDYAAPVKDRFTISRDDSKNTLYLQMNSLRTEDTALYYCTWDWDFYYGMNVWGRGTLVTVSSGGGGSGGGGSGGGGSQSVLTQPPSASGTPGQRVTISCSGSSSNIGSNTVNWYQRLPGAAPQLLIYNNDQRPSGIPDRFSGSKSGTSGSLVISGLQSEDEADYYCASWDDSLNGRVFGGGTKLTVLG
B4: GMBC621 (scFv)
scFv: EVQLVQSGGGVVQPGRSLRLSCAASGFTFSSYGMHWVRQAPGKGLEWVAVISYDGSNKYYADSVKGRFTISRDNSKNTLYLQMDSLRAEDTAVYFCAKRGLWTPIDYWGKGTLVTVSSGGGGSGGGGSGGGGSSELTQDPAVSVALGQTVRITCQGDSLRSYYASWYQQKPGQAPVLVIYGKNNRPSGIPDRFSGSNSGNTASLTITGAQAEDEADYYCNSRDSSGNHVVFGGGTKLTVLG
B5: GMBC629 (scFv)
scFv: QVQLVESGGGLVKPGGSLRLSCAGSGFKFSDAWMNWVRQAPGKGLEWVGRIKSKGSGGTIEYAVPVKDRFIISRDDSKDTLYLQMNSLKTEDTALYYCTWDWDFYYGMNVWGQGTLVTVSSGGGGSGGGGSGGGGSSELTQDPAVSVALGQTVRITCQGDSLRSYYTNWFQQKPGQAPLLVVYAKNKRPSGIPDRFSGSSSGNTASLTITGAQAEDEADYYCHSRDSSGNHVLFGGGTKLTVLG
B6: GMBC685 (scFv)
scFv: QVQLVESGGVVVQPGGSLRLSCAASGFTFSDAWMNWVRQAPGKGLEWVGRIKSKGSGGTIDYAAPVKDRFTISRDDSKNTLYLQMNSLKTEDTALYYCTWDWDFYYGMNVWGKGTMVTVSSGGGGSGGGGSGGGGSSELTQDPAVSVALGQTVRITCQGDSLRSYYTNWFQQKPGQAPLLVVYAKNKRPSGIPDRFSGSSSGNTASLTITGAQAEDEADYYCHSRDSSGNHVLFGGGTKLTVLG
B7: GMBC729 (scFv)
scFv: QVQLQESGGGLVKPGGSLRLSCAGSGFKFSDAWMNWVRQAPGKGLEWVGRIKSKGSGGTIEYAAPVKDRFIISRDDSKDTLYLQMDSLKTEDTALYYCTWDWDFYYGMNVWGQGTLVTVSSGGGGSGGGGSGGGGSSELTQDPAVSVALGQTVRITCQGDSLRNYYTNWFQQKPGQAPLLVVYAKNKRPSGIPDRFSGSSSGNTASLTITGAQAEDEADYYCHSRDSSGNHVLFGGGTKLTVLG
B8: GMBC665 (scFv)
scFv: EVQLVETGGGLVKPGGSLRLSCAASGFTFSDAWMNWVRQAPGKGLEWVGRIKSKGSGGTIDYAAPVKDRFTISRDDSKNTLYLQMNSLKTEDTALYYCTWDWDFYYGMNVWGQGTMVTVSSGGGGSGGGGSGGGGSSELTQDPAVSVALGQTVRITCQGDSLRSYYASWYQQKPGQAPVLVIYGKNNRPSGIPDRFSGSSSGNTASLTITGAQAEDEADYYCNSRDSSGNHVVFGGGTKLTVLG
B9: GMBC632 (scFv)
scFv: QVQLVQSGGGLVKPGGSLRLSCAGSGFKFSDAWMNWVRQAPGKGLEWVGRIKSKGSGGTIEYAAPVKDRFIISRDDSKDTLYLQMNSLKTEDTALYYCTWDWDFYYDMNVWGQGTMVTVSSGGGGSGGGGSGGGGSSELTQDPAVSVALGQTVRITCQGDSLRSYYASWYQQKPGQAPVLVIYGKNNRPSGIPDRFFGSSSGNTASLTITGAQAEDEADYYCNSRDSSGNHVVFGGGTKLTVLG
B10: GMBC657 (scFv)
scFv: QMQLMQSGGGLVKPGGSLRLSCAGSGFKFSDAWMNWVRQAPGKGLEWVGRIKSKGSGGTIEYAAPVKDRFIISRDDSKDTLYLQMNSLKTEDTALYYCTWDWDFYYGMNVWGQGTLVTVSSGGGGSGGGGSGGGGSSELTQDPAVSVALGQTVRITCQGDSLRSYYASWYQQKPGQAPVLVIYGKNNRPSGIPDRFSGSSSGNTASLTITGAQAEDEADYYCNSRDSSGNHVVFGGGTKLTVLG
B11: GMBC635 (scFv)
scFv: EVQLVESGGGLVKPGGSLRLSCAASGFTFSDAWMNWVRQAPGKGLEWVGRIKSKGSGGTIDYAAPVKDRYTISRDDSKNTLYLQMNSLKTEDTALYYCTWDWDFYYGMNVWGKGTMVTVSSGGGGSGGGGSGGGGSSELTQDPAVSVALGQTVRITCQGDSLRSYYASWYQQKPGQAPVLVIYGKNNRPSGIPDRFSGSSSGNTASLTITGAQAEDEADYYCNSRDSSGNHVVFGGGTKLTVLG
B12: GMBC648 (scFv)
scFv: QVQLVESGGGLVKPGGSLRLSCAASGFTFSDAWMNWVRQAPGKGLEWVGRIKSKRSGGTIDYAAPVKDRFTISRDDSKNTLYLQMNSLKTEDTALYYCTWDWDFYYGMNVWGQGTMVTVSSGGGGSGGGGSGGGGSSELTQDPTVSVALGQTVRITCQGDSLRSYYASWYQQKPGQAPVLVIYGKNNRPSGIPDRFSGSSSGNTASLTITGAQAEDEADYYCNSRDSSGNHVVFGGGTKLTVLG
B13: GMBC627 (scFv)
scFv: GVQLVQSGGEVKKPGASVRVSCKASRYIFSNYGFSWVRQAPGQGLEWMGSIRNDKGSTNYAQGFQDRLTMTTDTSTNTVFMELRSLSSDDTAVYYCASAPYYYGMGIWGKGTLVTVSSGGGGSGGGGSGGGGSQSVLTQPASVSGSSGQSITISCTGTSSDVGGYNYVSWYQQHPGKAPKLMIYEVGNRPSGVSNRFSGSKSGNTASLTISGLQAEDEADYYCSSYTTRSTRVFGGGTKLTVLG
B14: GMBC630 (scFv)
scFv: QVQLVESGGGLVQPGRSLRLPCAASGFTFSSYGMHWVRQAPGKGLEWVAVISYDGSNKYYADSVKGRFTISRDNSKNTLYLQMNSLRAEDTAVYYCAKATSLLNAFDIWGRGTMVTVSSGGGGSGGGGSGGGGSSELTQDPAVSVALGQTVRITCQGDSLRSYYASWYQQKPGQAPVLVIYGKNNRPSGIPDRFSGSSSGNTASLTITGAQAEDEADYYCNSRDSSGNHVVFGGGTKLTVLG
B15: GMBC638 (scFv)
scFv: QVQLVQSGGGLVKPGESLRLSCEASGFEFNYAWMSWVRQAPGKGLEWVGRSRSVASGGTTDYAAPLQDRFTISRDDSKNTLYLQVNSLKIEDTGVYFCKWEKSEYYGMDVWGRGTMVTVSSGGGGSGGGGSGGGGSQSVLTQPASVSGSPGQSITISCTGTSSDVGGYNYVSWYQQHPGKAPKLMIYEGSKRPSGVSNRFSGSKSGNTASLTISGLQAEDEADYYCSSYTTRSTRVFGGGTKLTVLG
B16: GMBC626 (scFv)
scFv: EVQLVQSGGGLVKPGESLRLSCEASGFEFNYAWMSWVRQAPGKGLEWVGRSRSEASGGTTDYAAPLQDRFTISRDDSKNTLYLQVNSLKIEDTGVYFCKWEKSEYYGMDVWGRGTPVTVSSGGGGSGGGGSGGGGSQSVLTQPASVSGSPGQSITISCTGTSSDVGGYNYVSWYQQHPGKAPKLMIYEGSKRPSGVSNRFSGSKSGNTASLTISGLRAEDEADYYCSSYTTKSTQVFGGGTKLTVLG
B17: GMBC659 (scFv)
scFv: QVQLVESGGGLVKPGESLRLSCEASGFEFNYAWMSWVRQAPGKGLEWVGRSRSEASGGTTDYAAPLQDRFTISRDDSKNTLYLQVNSLKIEDTGVYFCKWEKSEYYGMDVWGRGTLVTVSSGGGGSGGGGSGGGGSQSVLTQPASVSGSPGQSITISCTGTSSDVGGYNYVSWYQQHPGKAPKLMIYEGSKRPSGVSNRFSGSKSGNTASLTISGLQAEDEADYYCSSYTTRSTRVFGGGTKLTVLG
B18: GMBC619 (scFv)
scFv: EVQLVESGGGVVQPGRSLRLSCAASGFTFRSYGMHWVRQAPGKGLEWVAVITYDGSNKYYADSVKGRFTISRDNSKNTLYLQMNSLRADDTAVYYCARDGGGWYHPRLDYWGQGTMVTVSSGGGGSGGGGSGGGGSSELTQDPAVSVALGQTVRITCQGDSLRSYYASWYQQKPGQAPVLVIYGKNNRPSGIPDRFSGSSSGNTASLTITGAQAEDEADYYCNSRDSSGNHVVFGGGTKLTVLG

This test concerns the target T1, flag-tagged soluble TL3 (amino acids …). The experiment in a line: phage ELISA on immobilized flag-tagged soluble TL3. As for the experimental part:
The individual phage isolates in the panel of phage, each phage expressing a unique scFv that bound to flag-tagged GMAD, were tested to ensure specificity for GMAD using an ELISA assay. The scFvs were tested in an ELISA for their ability to bind a heterologous flag-tagged protein, in this case—immobilized soluble TL3 (amino acids 105-251 of SEQ ID NO:234, GenBank Accesion Number NP_{—}003799, also described in International Patent Application Publication Number WO97/33902 and WO2001/96528 which are herein incorporated by reference in their entireties).
On the technique in general: In an ELISA, binding on a coated surface is turned into a signal by an enzyme label.
For B1, the binding result is listed as “no binding”. To B2 belongs “no binding”. Next, B3: “no binding”. Next, B4: “no binding”. Regarding B5, the binding result is listed as “no binding”. To B6 belongs “no binding”; to B7, “no binding”.

For the molecule B8, the binding result is “no binding”. Next, B9: “no binding”.

As for B10, the binding result is “no binding”. Next, B11: “no binding”; B12: “no binding”. With B13, the binding result is given as “no binding”. Take B14: the binding result is reported as “no binding”. To B15 belongs “no binding”; to B16, “no binding”; to B17, “no binding”.

Take B18: the binding result is on record as “no binding”.
